Article doi:10.1101/2021.01.27.428455 (bioRxiv, 2021)
Where “and” joins values, the source holds several entries; their conditions need not be identical. Identical values can stand only once. Like-named read-outs stand apart in the source and are kept apart here.

B1: Lactococcus lactis Csm2 with N-terminal His6-tag (natural protein)
chain: TELKIGNEKVNSTNFGDFAEKAIRGINHKPFVNSKGGEQKITTSKIRGILELVNKVYNRVINTNDVELSENILADIAYIKVKIAYESGREPVVKDFIQRTAFTAAITDVMNQRTRESFLLFARYVESLIAYFKFYGGKD
B2: Lactococcus lactis Csm3 Asp30Ala (natural protein)
chain: MKLVIEGTIVLKTGMHIGGSSDFSAIGAVASPVVRDTLTRLPLIPGSSLKGKMRYLLAKELNNGILLNEPNNDQDEILRLFGSSEKDKIRRARLKFNDIKLSNLAELETFNVSSTEVKFENTINRKTAVANPRQIERVIAGSKFDFEIFYNLDDIKEVEKDFENIKQGFDLLEFDYLGGHGTRGSGRIAFENLSVITAVGNFEKINTLNEILGA

How the values were obtained:
Assay in all cases: cryo-EM structure
[1] = target: B2
cryo-EM structure [2] = target: the molecule itself
cryo-EM structure [3] = target: the molecule itself; remark: listed apart in the source

binding result [1] | Binder | stoichiometry N (cryo-EM structure [2]) | stoichiometry N (cryo-EM structure [3])
binds | B1 | 3 and 2 | 
 | B2 | 3 | 4
